What was measured:
autotaxin (ENPP2/NPP2) [1] = biological target: T1, autotaxin (ENPP2/NPP2) (Homo sapiens, UniProt Q13822 Q13822:36-863); experiment: inhibition; NPP2 assay, 37 C
autotaxin (ENPP2/NPP2) [2] = biological target: T1, autotaxin (ENPP2/NPP2); experiment: inhibition; LPA production, 0.10 uM aptamer, ~92% serum, 37C 3 h
[3] = biological target: autotaxin (endogenous, human pooled serum) (Homo sapiens, UniProt Q13822 Q13822:36-863); experiment: inhibition; LPA production in serum, 5.0 uM

CCTGGACGGAACCAGAATACTTTTGGTCTCCAGG (ssDNA) [SEQ 12 aptamer]
IC50 (autotaxin (ENPP2/NPP2) [1]): 12 nM

CCTGGACGGAACCAGAATACTTTTGGTCTCCAGG (ssDNA, 2'-OMe C7,G9,A14,G15,A19,C20,A32,G33,G34; PS after C30; idT 5' and 3') [12(113)]
activity (autotaxin (ENPP2/NPP2) [2]): 66 % inhibition

CCTGGACGGAACCAGAATACTTTTGGTCTCCAGG (ssDNA, 2'-OMe A32,G33,G34) [12(3)]
activity [3]: 92 % inhibition

CCTGGACGGAACCAGAATACTTTTGGTCTCCAGG (ssDNA, 2'-OMe T3) [12(39)]
activity [3]: 85 % inhibition

CCTGGACGGAACCAGAATACTTTTGGTCTCCAGG (ssDNA, 2'-OMe C7,G9,A14,G15,A19,C20,A32,G33,G34; P-methyl G5; idT 5' and 3') [12(128)]
activity (autotaxin (ENPP2/NPP2) [2]): 78 % inhibition

CCTGGACGGAACCAGAATACTTTTGGTCTCCAGG (ssDNA, 2'-OMe T22) [12(28)]
activity [3]: 64 % inhibition

CCTGGACGGAACCAGAATACTTTTGGTCTCCAGG (ssDNA, 2'-OMe C7,G9,A14,G15,A19,C20,A32,G33,G34; P-methyl T22; idT 5' and 3') [12(122)]
activity (autotaxin (ENPP2/NPP2) [2]): 65 % inhibition

CCTGGACGGAACCAGAATACTTTTGGTCTCCAGG (ssDNA, 2'-OMe G5) [12(36)]
activity [3]: 84 % inhibition

CCTGGACGGAACCAGAATACTTTTGGTCTCCAGG (ssDNA, 2'-OMe G25,G26) [12(6)]
activity [3]: 63 % inhibition

CCTGGACGGAACCAGAATACTTTTGGTCTCCAGG (ssDNA, 2'-OMe C7,G9,A14,G15,A19,C20,A32,G33,G34; P-methyl T21; idT 5' and 3') [12(123)]
activity (autotaxin (ENPP2/NPP2) [2]): 74 % inhibition

CCTGGACGGAACCAGAATACTTTTGGTCTCCAGG (ssDNA, 2'-OMe C1) [12(41)]
activity [3]: 85 % inhibition

CCTGGACGGAACCAGAATACTTTTGGTCTCCAGG (ssDNA, 2'-OMe T21) [12(20)]
activity [3]: 76 % inhibition

CCTGGACGGAACCAGAATACTTTTGGTCTCCAGG (ssDNA, 2'-OMe A10) [12(15)]
activity [3]: 68 % inhibition

CCTGGACGGAACCAGAATACTTTTGGTCTCCAGG (ssDNA, 2'-OMe C2) [12(40)]
activity [3]: 84 % inhibition

B1: 12(25) (ssDNA)
DNA: CCTGGACGGAACCAGAATACTTTTGGTCTCCAGG
modifications: 2'-OMe C1,C2,T3,G4,G5,C7,G9,C12,C13,A14,G15,T18,A19,C20,A32,G33,G34; 5' idT, 3' idT
activity [3]: 84 % inhibition

CCTGGACGGAACCAGAATACTTTTGGTCTCCAGG (ssDNA, 2'-OMe G25) [12(30)]
activity [3]: 75 % inhibition

B2: 12(117) (ssDNA)
DNA: B1 DNA
modifications: 2'-OMe C7,G9,A14,G15,A19,C20,A32,G33,G34; PS after G8; 5' 40 kDa PEG (GL2-400GS2) via ssH linker; 3' idT
activity (autotaxin (ENPP2/NPP2) [2]): 90 % inhibition

CCTGGACGGAACCAGAATACTTTTGGTCTCCAGG (ssDNA, 2'-OMe T24) [12(33)]
activity [3]: 62 % inhibition

CCTGGACGGAACCAGAATACTTTTGGTCTCCAGG (ssDNA, 2'-OMe C7,G9,A14,G15,A19,C20,A32,G33,G34; P-methyl A17; idT 5' and 3') [12(125)]
activity (autotaxin (ENPP2/NPP2) [2]): 78 % inhibition

CCTGGACGGAACCAGAATACTTTTGGTCTCCAGG (ssDNA, 2'-OMe A17) [12(16)]
activity [3]: 83 % inhibition

CCTGGACGGAACCAGAATACTTTTGGTCTCCAGG (ssDNA, 2'-OMe T23,T24) [12(5)]
activity [3]: 15 % inhibition

CCTGGACGGAACCAGAATACTTTTGGTCTCCAGG (ssDNA, 2'-OMe G9) [12(14)]
activity [3]: 95 % inhibition

CCTGGACGGAACCAGAATACTTTTGGTCTCCAGG (ssDNA, 2'-OMe C30) [12(37)]
activity [3]: 85 % inhibition

CCTGGACGGAACCAGAATACTTTTGGTCTCCAGG (ssDNA, 2'-OMe T18) [12(17)]
activity [3]: 83 % inhibition

CCTGGACGGAACCAGAATACTTTTGGTCTCCAGG (ssDNA, 2'-OMe A11) [12(10)]
activity [3]: 26 % inhibition

CCTGGACGGAACCAGAATACTTTTGGTCTCCAGG (ssDNA, 2'-OMe G4) [12(35)]
activity [3]: 82 % inhibition

CCTGGACGGAACCAGAATACTTTTGGTCTCCAGG (ssDNA, 2'-OMe T29) [12(9)]
activity [3]: 78 % inhibition

CCTGGACGGAACCAGAATACTTTTGGTCTCCAGG (ssDNA, 2'-OMe C7) [12(12)]
activity [3]: 94 % inhibition

CCTGGACGGAACCAGAATACTTTTGGTCTCCAGG (ssDNA, 5' 40 kDa PEG (GL2-400GS2) via ssH linker, 3' idT) [12(23)]
activity [3]: 90 % inhibition

CCTGGACGGAACCAGAATACTTTTGGTCTCCAGG (ssDNA, 2'-OMe C7,G9,A14,G15,A19,C20,A32,G33,G34; PS after C31; idT 5' and 3') [12(114)]
activity (autotaxin (ENPP2/NPP2) [2]): 75 % inhibition

CCTGGACGGAACCAGAATACTTTTGGTCTCCAGG (ssDNA, 2'-OMe A6) [12(8)]
activity [3]: 69 % inhibition

CCTGGACGGAACCAGAATACTTTTGGTCTCCAGG (ssDNA, 2'-OMe T23) [12(34)]
activity [3]: 55 % inhibition

CCTGGACGGAACCAGAATACTTTTGGTCTCCAGG (ssDNA, 2'-OMe T27) [12(11)]
activity [3]: 38 % inhibition

CCTGGACGGAACCAGAATACTTTTGGTCTCCAGG (ssDNA, 2'-OMe A14,G15) [12(7)]
activity [3]: 88 % inhibition

CCTGGACGGAACCAGAATACTTTTGGTCTCCAGG (ssDNA, 2'-OMe C7,G9,A14,G15,A19,C20,A32,G33,G34; P-methyl C30; idT 5' and 3') [12(127)]
activity (autotaxin (ENPP2/NPP2) [2]): 79 % inhibition

CCTGGACGGAACCAGAATACTTTTGGTCTCCAGG (ssDNA, 2'-OMe C20) [12(19)]
activity [3]: 90 % inhibition

CCTGGACGGAACCAGAATACTTTTGGTCTCCAGG (ssDNA, 2'-OMe G8) [12(13)]
activity [3]: 74 % inhibition

CCTGGACGGAACCAGAATACTTTTGGTCTCCAGG (ssDNA, 2'-OMe C28) [12(26)]
activity [3]: 35 % inhibition

CCTGGACGGAACCAGAATACTTTTGGTCTCCAGG (ssDNA, 2'-OMe G4,G5) [12(21)]
activity [3]: 84 % inhibition

CCTGGACGGAACCAGAATACTTTTGGTCTCCAGG (ssDNA, 2'-OMe C7,G9,A14,G15,A19,C20,A32,G33,G34; P-methyl T23; idT 5' and 3') [12(121)]
activity (autotaxin (ENPP2/NPP2) [2]): 80 % inhibition

CCTGGACGGAACCAGAATACTTTTGGTCTCCAGG (ssDNA, 2'-OMe C7,G9,A14,G15,A19,C20,A32,G33,G34; P-methyl C31; idT 5' and 3') [12(126)]
activity (autotaxin (ENPP2/NPP2) [2]): 77 % inhibition

CCTGGACGGAACCAGAATACTTTTGGTCTCCAGG (ssDNA, 2'-OMe C7,G9,A14,G15,A19,C20,A32,G33,G34; P-methyl A16; idT 5' and 3') [12(124)]
activity (autotaxin (ENPP2/NPP2) [2]): 76 % inhibition

CCTGGACGGAACCAGAATACTTTTGGTCTCCAGG (ssDNA, 2'-OMe C7,G9,A14,G15,A19,C20,A32,G33,G34; PS after G33; idT 5' and 3') [12(116)]
activity (autotaxin (ENPP2/NPP2) [2]): 72 % inhibition

CCTGGACGGAACCAGAATACTTTTGGTCTCCAGG (ssDNA, 2'-OMe G26) [12(29)]
activity [3]: 84 % inhibition

CCTGGACGGAACCAGAATACTTTTGGTCTCCAGG (ssDNA, 2'-OMe C12) [12(31)]
activity [3]: 87 % inhibition

CCTGGACGGAACCAGAATACTTTTGGTCTCCAGG (ssDNA, 2'-OMe C13) [12(32)]
activity [3]: 85 % inhibition

CCTGGACGGAACCAGAATACTTTTGGTCTCCAGG (ssDNA, 2'-OMe C7,G9,A14,G15,A19,C20,A32,G33,G34; 5' idT, 3' idT) [12(24)]
activity [3]: 96 % inhibition

CCTGGACGGAACCAGAATACTTTTGGTCTCCAGG (ssDNA, 2'-OMe C7,G9,A14,G15,A19,C20,A32,G33,G34; PS after A32; idT 5' and 3') [12(115)]
activity (autotaxin (ENPP2/NPP2) [2]): 77 % inhibition

CCTGGACGGAACCAGAATACTTTTGGTCTCCAGG (ssDNA, 2'-OMe A16) [12(27)]
activity [3]: 86 % inhibition

CCTGGACGGAACCAGAATACTTTTGGTCTCCAGG (ssDNA, 2'-OMe C31) [12(38)]
activity [3]: 83 % inhibition

CCTGGACGGAACCAGAATACTTTTGGTCTCCAGG (ssDNA, 2'-OMe C12,C13) [12(4)]
activity [3]: 82 % inhibition

CCTGGACGGAACCAGAATACTTTTGGTCTCCAGG (ssDNA, 2'-OMe C7,G9,A14,G15,A19,C20,A32,G33,G34; P-methyl T3; idT 5' and 3') [12(129)]
activity (autotaxin (ENPP2/NPP2) [2]): 73 % inhibition

CCTGGACGGAACCAGAATACTTTTGGTCTCCAGG (ssDNA, 2'-OMe A19) [12(18)]
activity [3]: 93 % inhibition

CCTGGACGGAACCAGAATACTTTTGGTCTCCAGG (ssDNA, 2'-OMe C30,C31) [12(2)]
activity [3]: 80 % inhibition

CCTGGACGGAACCAGAATACTTTTGGTCTCCAGG (ssDNA, 2'-OMe C7,G9,A14,G15,A19,C20,A32,G33,G34; P-methyl C1; idT 5' and 3') [12(130)]
activity (autotaxin (ENPP2/NPP2) [2]): 77 % inhibition

CCTGGACGGAACCAGAATACTTTTGGTCTCCAGG (ssDNA, 5' idT, 3' idT) [12(22)]
activity [3]: 91 % inhibition

CCTGGACGGAACCAGAATACTTTTGGTCTCCAGG (ssDNA, 2'-OMe C7,G9,A14,G15,A19,C20,A32,G33,G34; P-methyl T24; idT 5' and 3') [12(120)]
activity (autotaxin (ENPP2/NPP2) [2]): 67 % inhibition

GTACTCATGGACGGAACCAGAATACTTTTGGTCTCCATTGAGTAC (ssDNA) [SEQ 11 aptamer]
IC50 (autotaxin (ENPP2/NPP2) [1]): 12 nM

B3: SEQ 5 aptamer (ssDNA)
DNA: GTGGTCTAGCTGTACTCATGGACGGAACCAGAATACTTTTGGTCTCCATTGAGTACGCCACAGTCAACGAGCTA
IC50 (autotaxin (ENPP2/NPP2) [1]): 11 nM

GCTGGCCGGAACCGTGCATATGGTCGCCAGC (ssDNA) [SEQ 29 aptamer]
IC50 (autotaxin (ENPP2/NPP2) [1]): 11 nM

— patent publication US20170137818, “APTAMER INHIBITING BIOLOGICAL ACTIVITY OF AUTOTAXIN BY BINDING WITH AUTOTAXIN, AND USE THEREOF” (RIBOMIC INC., published 2017)
